The source of these data is article PMC10953408.

The target of assay [1] is LgBit‐IL12Rβ1 (UniProt P42701). Nature of the assay: split reporter (BiFC, NanoBiT); complementary NanoBiT-tagged receptor constructs co-expressed in HEK293T cells; luminescence of living cells in HBSS with 1 mg/ml BSA after furimazine, plate reader; with or without 10 nM IL-23, with or without co-expressed untagged IL12Rβ1.
For assay [2], the target named is LgBit‐IL23R (UniProt Q5VWK5). Described as above.
Assay [3] deals with LgBit‐VEGFR‐2 (UniProt P35968). Nature of the assay: split reporter (BiFC, NanoBiT); HiBit-IL23R (80 ng per well) co-transfected with LgBit-IL12Rβ1 or LgBit-VEGFR-2 (20 ng per well) in HEK293T cells; luminescence given as percent of that of the LgBit receptor alone with 50 nM purified HiBit; HBSS/0.1% BSA, 37°C.
The target of assay [4] is LgBit‐IL12Rβ1 (UniProt P42701). The description is as above.
Assay [5] deals with NanoBiT complemented heteromer of HiBit‐IL23R and LgBit‐IL12Rβ1 (UniProt Q5VWK5).
Assay [6] has the same target. Nature of the assay: FRET or BRET; NanoBiT BRET saturation: concentration titration of IL23-TMR for 1 h on living HEK293T cells expressing complemented NanoBiT receptors, with or without unlabelled IL-23; HBSS with 1 mg/ml BSA; one site total and nonspecific fit.
Assay [7] has as its target Trimeric or multimeric species of HiBit‐IL23R, LgBit‐IL23R and IL12Rβ1 (UniProt Q5VWK5). Described as above.

As to “HiBit‐IL23R (from UniProt Q5VWK5 24-629) (receptor)”, the fold luminescence over the mean of the receptor constructs expressed in isolation in assay [1] was found to be 73.3 fold. Moreover, in assay [2], the fold lower luminescence than the equivalent heteromeric condition is 2.12 fold and the fold stronger luminescence than the SmBit homomer turned out to be 6.36 fold. Moreover, the luminescence as percent of that of LgBit-VEGFR-2 with 50 nM purified HiBit in assay [3] was 11.6%. In assay [4], this substance returned a luminescence as percent of that of LgBit-IL12Rβ1 with 50 nM purified HiBit of 73%.

As for “Recombinant IL‐23 (from UniProt Q9NPF7 20-189; P29460 23-328) (ligand)”, the EC50 of STAT3 phosphorylation (phospho-STAT3 AlphaLISA), increasing concentrations of IL-23 on cells expressing HiBit-IL23R and LgBit-IL12Rβ1 in assay [5] was determined as 0.193 nM.

For “SmBit‐IL23R (from UniProt Q5VWK5 24-629) (receptor)”, in assay [1], the fold lower luminescence than HiBit-IL23R with LgBit-IL12Rβ1 is 6.19 fold and the fold luminescence over the mean of the receptor constructs expressed in isolation amounted to 10.3 fold. The fold lower luminescence than the equivalent heteromeric condition in assay [2] came out at 2.18 fold.

Consider “Tetramethylrhodamine (TMR) tagged IL‐23 (from UniProt Q9NPF7 20-189; P29460 23-328) (ligand)”, for which the dissociation constant (Kd) is 0.234 nM in assay [6] and 0.0362 nM in assay [7].
